Earlier results on 2 substances are cited in article PMC9927262.

Read-outs that look alike come from different tables or passages of the source.

Series [1] concerns the target Spike RBD RBD (SARS-CoV-2) (UniProt P0DTC2).
For series [2] the target is unchanged. The source holds these as a separate data set.

Take bamlanivimab: the Kd in series [1] is 3.5 nM.
For the substance etesevimab, the Kd in series [2] is 4.1 nM.

What is called Kd is the equilibrium constant for the complex coming apart.
